In publication PMC6101532:

Tests used:
[1] = molecular target: his-tagged RsbN(1–91) (Streptomyces venezuelae); assay: SEC
[2] = molecular target: MBP–RsbN α3 (maltose binding protein joined by a linker to RsbN α3) (Streptomyces venezuelae); assay: SEC

BldN domain 4 (σ4), non-tagged (domain or fragment)
stoichiometry N [1]: 1

BldN (σ^BldN), full length, wild type (natural protein)
stoichiometry N [2]: 1

BldN domain 2 (σ2), non-tagged (domain or fragment)
stoichiometry N [1]: 1
